Measurements reported in patent publication US20160068609A1.

Columns and labels:
[1] = biological target: Fc receptors on primary human blood cells: granulocytes (CD66+); assay: flow cytometry on human granulocytes (CD66+)
[2] = biological target: Fc receptors on primary human blood cells: NK cells (CD16+CD56+); assay: flow cytometry on human blood cells (Example 7)
[3] = biological target: Fc receptors on primary human blood cells: granulocytes (CD66+); assay: flow cytometry on human blood cells (Example 7)

Row | Substance | percent of granulocytes bound [1] [%] | percent of NK cells bound [2] [%] | percent of granulocytes bound [3] [%]
1 | control antibody having an Fc glycosylation pattern similar to that of Fuc- cetugex (including a similarly low fucosylation) | 20 | – | –
2 | Fuc+ cetuximab (high fucose anti-EGFR antibody cetuximab produced in mouse myeloma cell line SP2/0) | – | < 5 | < 5
3 | Fuc- cetuximab (low fucosylation variant of cetuximab; reduced fucose anti-EGFR antibody according to the invention) | 100 | – | –
